{"source": "paper doi:10.1101/2025.06.01.657267", "about": "“IFITM1 and IFITM3 cooperate to restrict virus entry in endolysosomes” (bioRxiv, 2025)", "molecular_target": "T1, FLAG-IFITM3 G95L (human, UniProt Q01628 1-133, G95L)", "T1 construct": "Interferon-induced transmembrane protein 3 (IFITM3), human, with G95L in the GxxxG motif of the CD225 domain; also called pQCXIP-FLAG-IFITM3 G95L; source: HEK293T, stably expressing pQCXIP-FLAG-IFITM3 G95L, in lysate; HEK293T, transiently transfected, in fixed cells", "T1 sequence (Q01628 whole entry G95L, the tested form may be a part)": "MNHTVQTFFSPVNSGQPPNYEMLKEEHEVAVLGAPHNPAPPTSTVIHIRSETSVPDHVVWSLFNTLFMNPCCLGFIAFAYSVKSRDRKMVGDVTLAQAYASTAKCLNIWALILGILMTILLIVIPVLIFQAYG", "test": "affinity purification with mass spectrometry; anti-FLAG (M2) immunoprecipitation from whole cell lysates (1% Triton X-100, 150 mM NaCl) of HEK293T stably expressing FLAG-IFITM3 WT, G95L or Empty Vector; TMT labelling, duplicate MS runs", "conditions": "partners not purified", "data": [{"binder": "endogenous IFITM1 (natural protein, UniProt P13164 1-125, looked up, Interferon-induced transmembrane protein 1 (IFITM1), human, endogenous) MHKEEHEVAVLGPPPSTILPRSTVINIHSETSVPDHVVWSLFNTLFLNWCCLGFIAFAYSVKSRDRKMVGDVTGAQAYASTAKCLNIWALILGILMTIGFILLLVFGSVTVYHIMLQIIQEKRGY", "values": [{"measurement": "fold more IFITM1 pulled down by IFITM3 WT than by IFITM3 G95L", "result": "~9", "unit": "fold"}]}]}
